According to EP3124498A1 (Oilcrops Research Institute of Chinese Academy of …, dated 2017):

Target: T1, BSA (UniProt P02769 25-607)
T1 construct: also called carrier protein BSA; 3% BSA
Test: phage ELISA on coated plates, detection with HRP/anti-M13, OD450

T1 sequence (P02769 25-607 limits assumed): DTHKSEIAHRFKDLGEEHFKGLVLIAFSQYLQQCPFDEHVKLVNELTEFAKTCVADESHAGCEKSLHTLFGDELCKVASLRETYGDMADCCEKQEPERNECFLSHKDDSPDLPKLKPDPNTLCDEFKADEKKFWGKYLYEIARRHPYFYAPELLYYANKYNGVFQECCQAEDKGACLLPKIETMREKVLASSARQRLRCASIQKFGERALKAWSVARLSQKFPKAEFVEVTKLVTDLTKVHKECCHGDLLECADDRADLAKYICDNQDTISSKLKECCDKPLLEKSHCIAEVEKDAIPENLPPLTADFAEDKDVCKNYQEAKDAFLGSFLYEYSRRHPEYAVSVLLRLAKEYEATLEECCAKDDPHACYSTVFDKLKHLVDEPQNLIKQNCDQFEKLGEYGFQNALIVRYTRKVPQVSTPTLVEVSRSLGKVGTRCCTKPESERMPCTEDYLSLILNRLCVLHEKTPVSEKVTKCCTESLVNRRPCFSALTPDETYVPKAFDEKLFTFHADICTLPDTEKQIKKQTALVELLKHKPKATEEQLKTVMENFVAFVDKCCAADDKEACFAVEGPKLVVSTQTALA

B1: aflatoxin B1 nanobody 2014AFB-G15 (VHH)
VHH: QLQLVESGGGLVQAGGSLRLSCAASGRTFSSYAMGWFRQAPGKEREFVAAISWSGGSTYYTDSVKGRFTINRDNAKNTVYLQMNSLKPEDTAVYYCAAGFSGNYYRTPDYWGQGTQVTVSS
notes: also called antibody 2014AFB-G15
**Q.** Does B1 bind?
**A.** Result: no binding (tested: wells coated with 3% BSA)
